In PMC2248580:

Molecular target: human activated blood coagulation factor X (FXa) (human)
Test: SPR; […]; 37°C; HBS (10 mM Hepes, 150 mM NaCl, 5 mM CaCl2, 0.005% P20, pH 7.4); Langmuir fit; […]

CbII, the basic subunit of the CbI-CbII complex (β-neurotoxin) from Pseudocerastes fieldi venom (enzyme)
Kd: 20 nM | koff: 0.0085 s⁻¹ | kon: 420000 M⁻¹ s⁻¹

bAhp, the basic PLA2 from Gloydious (Agkistrodon) halys pallas venom (from UniProt O42187 17-138) (enzyme)
Kd: 400 nM | koff: 0.016 s⁻¹ | kon: 40000 M⁻¹ s⁻¹
